{
  "source": "patent US12325865B2",
  "about": "“Methods for increasing efficiency of gene editing in cells” (President and Fellows of Harvard College, priority 2017, dated 2025)",
  "molecules": {"B1": {"name": "SV40 large T antigen: SV40 large T antigen, treatment also increasing targeting efficiency (protein, UniProt P03070 1-708, looked up)", "Large T antigen": "MDKVLNREESLQLMDLLGLERSAWGNIPLMRKAYLKKCKEFHPDKGGDEEKMKKMNTLYKKMEDGVKYAHQPDFGGFWDATEIPTYGTDEWEQWWNAFNEENLFCSEEMPSSDDEATADSQHSTPPKKKRKVEDPKDFPSELLSFLSHAVFSNRTLACFAIYTTKEKAALLYKKIMEKYSVTFISRHNSYNHNILFFLTPHRHRVSAINNYAQKLCTFSFLICKGVNKEYLMYSALTRDPFSVIEESLPGGLKEHDFNPEEAEETKQVSWKLVTEYAMETKCDDVLLLLGMYLEFQYSFEMCLKCIKKEQPSHYKYHEKHYANAAIFADSKNQKTICQQAVDTVLAKKRVDSLQLTREQMLTNRFNDLLDRMDIMFGSTGSADIEEWMAGVAWLHCLLPKMDSVVYDFLKCMVYNIPKKRYWLFKGPIDSGKTTLAAALLELCGGKALNVNLPLDRLNFELGVAIDQFLVVFEDVKGTGGESRDLPSGQGINNLDNLRDYLDGSVKVNLEKKHLNKRTQIFPPGIVTMNEYSVPKTLQARFVKQIDFRPKDYLKHCLERSEFLLEKRIIQSGIALLLMLIWYRPVAEFAQSIQSRIVEWKERLDKEFSLSVYQKMKFNVAMGIGVLDWLRNSDDDDEDSQENADKNEDGGEKNMEDSGHETGIDSQSQGSFQAPQSSQSVHDHNQPYHICRGFTCFKKPPTPPPEPET"}},
  "tested_on": "PFFF3 cells",
  "experiment": "Treatment of Cas9/gRNA-modified PFFF3 cells during multiplex PERV pol genetic modification",
  "assay_type": "cell-based, porcine",
  "conditions": "FIG. 2",
  "method": "Stable expression of Cas9 and the three sgRNAs was achieved by integrating a piggyBac transposon carrying these elements into the PFFF3 genome. The PFFF3 cell line was established expressing a Piggybac-Cas9/3gRNAs construct. Cas9 and […] were carried in the same vector. Cas9 expression was induced by addition of doxycycline.\nMethods described herein where cells are treated with PFTα and/or bFGF mitigate the stress from multiplex DNA damage and support clonal expansion of 100% PERV-free cells. Such DNA damage decreases targeting efficiency of the PFFF3 population over time and results in the inability to obtain 100% PERV-free PFFF3 clonal cell lines. Methods described herein are directed to inhibiting senescence and/or apoptosis pathways with small-molecule drugs so as to increase the targeting efficiency of the PFFF3 population and enhance viability of the highly edited clones. […] (See FIG. 1). […] (See FIG. 2). […] The distribution of the targeting efficiencies of single cell clones treated with PFTα and bFGF was approximately bimodal, and 100% PERV-free PFFF3 clonal cell lines were isolated. The eradication of pol activity was validated by RNA-seq with confirmation that all pol transcripts had been mutated.",
  "data": [
    {"molecule": "B1", "values": [
      {"measurement": "average targeting efficiency of the resulting PFFF3 population", "result": "increased average targeting efficiency"}
    ]}
  ]
}
